The source of these data is paper PMC11189300, “Structure of the human KMN complex and implications for regulation of its assembly” (Nature Structural & Molecular Biology, 2024).

Where a chain is given by its changes, count along the chain named. Numbers in names are those of the source.

T1: DSN1 (subunit of Mis12C in the KMN structure) (human, UniProt Q9H410 1-356)
T1 construct: DSN1, human; also called DSN1^SORT-HIS; source: Tnao38 insect cells (baculovirus), co-expressed in Mis12C, purified (Talon, SEC)
T1 sequence (looked up): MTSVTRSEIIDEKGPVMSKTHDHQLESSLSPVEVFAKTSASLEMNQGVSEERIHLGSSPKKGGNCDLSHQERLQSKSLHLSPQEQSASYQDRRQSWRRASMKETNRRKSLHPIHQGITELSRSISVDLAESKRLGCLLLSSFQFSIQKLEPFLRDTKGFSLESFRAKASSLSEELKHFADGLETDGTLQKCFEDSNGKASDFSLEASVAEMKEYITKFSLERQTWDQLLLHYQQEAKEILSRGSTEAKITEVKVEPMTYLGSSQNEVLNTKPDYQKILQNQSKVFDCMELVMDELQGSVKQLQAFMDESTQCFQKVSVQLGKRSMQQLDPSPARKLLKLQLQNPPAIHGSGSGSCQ

B1: KNL1 residues 2,021–2,342 (domain or fragment, human, UniProt Q8NG31 2021-2342, looked up)
chain: GKLVQSAQNEREKLQIKIDEMDKILKKIDNCLTEMETETKNLEDEEKNNPVEEWDSEMRAAEKELEQLKTEEEELQRNLLELEVQKEQTLAQIDFMQKQRNRTEELLDQLSLSEWDVVEWSDDQAVFTFVYDTIQLTITFEESVVGFPFLDKRYRKIVDVNFQSLLDEDQAPPSSLLVHKLIFQYVEEKESWKKTCTTQHQLPKMLEEFSLVVHHCRLLGEEIEYLKRWGPNYNLMNIDINNNELRLLFSSSAAFAKFEITLFLSAYYPSVPLPSTIQNHVGNTSQDDIATILSKVPLENNYLKNVVKQIYQDLFQDCHFYH
notes: KNL1 (CASC5), human, C-terminal region, residues 2,021–2,342; numbering of isoform 1 of the CASC5 gene; also called KNL1_(2,021–2,342); Knl1_(2,021–2,342); source: E. coli BL21(DE3)-Codon-plus-RIPL, purified (glutathione-agarose, TEV cleavage, SEC)
B2: SPC25_(92–224) (domain or fragment, human, UniProt Q9HBM1 92-224, looked up)
chain: KKQELEVLTANIQDLKEEYSRKKETISTANKANAERLKRLQKSADLYKDRLGLEIRKIYGEKLQFIFTNIDPKNPESPFMFSLHLNEARDYEVSDSAPHLEGLAEFQENVRKTNNFSAFLANVRKAFTATVYN
notes: SPC25, human, residues 92–224 (RWD domain); source: E. coli BL21(DE3)-codon-plus-RIPL, co-purified with SPC24 (glutathione-agarose, 3C protease, SEC)
B3: Mis12 complex (Mis12C), full length: MIS12, PMF1, NSL1, DSN1 (complex, human)
chain 1: MSVDPMTYEAQFFGFTPQTCMLRIYIAFQDYLFEVMQAVEQVILKKLDGIPDCDISPVQIRKCTEKFLCFMKGHFDNLFSKMEQLFLQLILRIPSNILLPEDKCKETPYSEEDFQHLQKEIEQLQEKYKTELCTKQALLAELEEQKIVQAKLKQTLTFFDELHNVGRDHGTSDFRESLVSLVQNSRKLQNIRDNVEKESKRLKIS
chain 2: MAEASSANLGSGCEEKRHEGSSSESVPPGTTISRVKLLDTMVDTFLQKLVAAGSYQRFTDCYKCFYQLQPAMTQQIYDKFIAQLQTSIREEISDIKEEGNLEAVLNALDKIVEEGKVRKEPAWRPSGIPEKDLHSVMAPYFLQQRDTLRRHVQKQEAENQQLADAVLAGRRQVEELQLQVQAQQQAWQALHREQRELVAVLREPE
chain 3: MAGSPELVVLDPPWDKELAAGTESQALVSATPREDFRVRCTSKRAVTEMLQLCGRFVQKLGDALPEEIREPALRDAQWTFESAVQENISINGQAWQEASDNCFMDSDIKVLEDQFDEIIVDIATKRKQYPRKILECVIKTIKAKQEILKQYHPVVHPLDLKYDPDPAPHMENLKCRGETVAKEISEAMKSLPALIEQGEGFSQVLRMQPVIHLQRIHQEVFSSCHRKPDAKPENFITQIETTPTETASRKTSDMVLKRKQTKDCPQRKWYPLRPKKINLDT
chain 4: T1 sequence (looked up)
notes: MIS12, human, subunit of the Mis12 complex; PMF1, human, subunit of the Mis12 complex; NSL1, human, subunit of the Mis12 complex; DSN1, human, subunit of the Mis12 complex (DSN1^SORT-HIS); In BLI one partner was biotinylated by sortase (GGGG-biotin peptide); also called Mis12C^WT; wild-type Mis12C; source: Tnao38 insect cells (baculovirus from pBIG1A), purified (Talon, SEC); copies: + + +
B4: PMF1 (subunit of Mis12C in the KMN structure) (natural protein, human, UniProt Q6P1K2 1-205, looked up)
chain: B3 chain 2
notes: PMF1, human; source: Tnao38 insect cells (baculovirus), co-expressed in Mis12C, purified (Talon, SEC)
B5: Mis12C with KNL1_(2,026–2,342) bound (complex, human)
chain 1: B3 chain 1
chain 2: B3 chain 2
chain 3: B3 chain 3
chain 4: T1 sequence (looked up)
chain 5: SAQNEREKLQIKIDEMDKILKKIDNCLTEMETETKNLEDEEKNNPVEEWDSEMRAAEKELEQLKTEEEELQRNLLELEVQKEQTLAQIDFMQKQRNRTEELLDQLSLSEWDVVEWSDDQAVFTFVYDTIQLTITFEESVVGFPFLDKRYRKIVDVNFQSLLDEDQAPPSSLLVHKLIFQYVEEKESWKKTCTTQHQLPKMLEEFSLVVHHCRLLGEEIEYLKRWGPNYNLMNIDINNNELRLLFSSSAAFAKFEITLFLSAYYPSVPLPSTIQNHVGNTSQDDIATILSKVPLENNYLKNVVKQIYQDLFQDCHFYH
notes: MIS12, human; PMF1, human; NSL1, human; DSN1, human; numbering of isoform 1 of the CASC5 gene; also called Mis12C + KNL1; source: Mis12C: Tnao38 insect cells, purified; KNL1: E. coli BL21(DE3)-Codon-plus-RIPL, purified; copies: + + + +
B6: NSL1 (subunit of Mis12C in the KMN structure) (natural protein, human, UniProt Q96IY1 1-281, looked up)
chain: B3 chain 3
notes: NSL1, human; source: Tnao38 insect cells (baculovirus), co-expressed in Mis12C, purified (Talon, SEC)
B7: SPC24/SPC25^L154A-L176A (complex, human)
chain 1: MAAFRDIEEVSQGLLSLLGANRAEAQQRRLLGRHEQVVERLLETQDGAEKQLREILTMEKEVAQSLLNAKEQVHQGGVELQQLEAGLQEAGEEDTRLKASLLQLTRELEELKEIEADLERQEKEVDEDTTVTIPSAVYVAQLYHQVSKIEWDYECEPGMVKGIHHGPSVAQPIHLDSTQLSRKFISDYLWSLVDTEW
chain 2: MVEDELALFDKSINEFWNKFKSTDTSCQMAGLRDTYKDSIKAFAEKLSVKLKEEERMVEMFLEYQNQISRQNKLIQEKKDNLLKLIAEVKGKKQELEVLTANIQDLKEEYSRKKETISTANKANAERLKRLQKSADLYKDRLGLEIRKIYGEKAQFIFTNIDPKNPESPFMFSLHANEARDYEVSDSAPHLEGLAEFQENVRKTNNFSAFLANVRKAFTATVYN
notes: SPC24, human; SPC25, human, L154A and L176A; limits not restated, likely full length; GST cleaved off with 3C protease; also called SPC^M2; source: E. coli BL21(DE3)-codon-plus-RIPL, purified (glutathione-agarose, 3C protease, SEC)
B8: SPC24^Y138A/SPC25 (complex, human)
chain 1: B7 chain 1 with Y138A
chain 2: B7 chain 2 with A154L, A176L
notes: SPC24, human, Y138A; SPC25, human; limits not restated, likely full length; GST cleaved off with 3C protease; also called SPC^M1; source: E. coli BL21(DE3)-codon-plus-RIPL, purified (glutathione-agarose, 3C protease, SEC)

Common to all, as to settings: both partners purified
Assay [1] has as its target T1, DSN1 (subunit of Mis12C in the KMN …). In words: cryo-EM structure; eight-subunit KMN (full-length Mis12C, SPC24 109–197/SPC25 92–224, ZWINT, KNL1 2,021–2,342), 0.3 mg/ml with 0.003% Triton; reconstruction at 4.5 Å; model fitted from known structures and AF2 predictions and refined against the map.
The target of assay [2] is B3. The assay is described as above.
Assay [3] concerns the target T2, Ndc80 complex (Ndc80C): NDC80^HEC1, NUF2, SPC24, SPC25 (human, UniProt O14777 1-642; Q9BZD4 1-464; Q8NBT2 1-197; Q9HBM1 1-224).
T2 construct: NDC80 (HEC1), human; NUF2, human; SPC24, human; SPC25, human; also called complete Ndc80C; copies: + + +
The assay is described as follows: BLI; Octet SA biosensors loaded with the biotinylated ligand, analyte at different concentrations; 25 °C; 50 mM HEPES pH 8.0, 150 mM NaCl, 2 mM TCEP, 0.05% Tween-20; which partner was loaded is not given.

Assay [4] deals with B1. In words: cryo-EM structure; eight-subunit KMN (full-length Mis12C, SPC24 109–197/SPC25 92–224, ZWINT, KNL1 2,021–2,342), 0.3 mg/ml with 0.003% Triton; reconstruction at 4.5 Å; model fitted from known structures and AF2 predictions and refined against the map.
Assay [5] concerns the target B3. The assay is described as follows: ITC; PEAQ-ITC; 50 mM HEPES pH 8.0, 150 mM NaCl, 1 mM TCEP; 19 injections; one-site binding fit.

T2 sequence (O14777 whole entry, chain 1 of 2): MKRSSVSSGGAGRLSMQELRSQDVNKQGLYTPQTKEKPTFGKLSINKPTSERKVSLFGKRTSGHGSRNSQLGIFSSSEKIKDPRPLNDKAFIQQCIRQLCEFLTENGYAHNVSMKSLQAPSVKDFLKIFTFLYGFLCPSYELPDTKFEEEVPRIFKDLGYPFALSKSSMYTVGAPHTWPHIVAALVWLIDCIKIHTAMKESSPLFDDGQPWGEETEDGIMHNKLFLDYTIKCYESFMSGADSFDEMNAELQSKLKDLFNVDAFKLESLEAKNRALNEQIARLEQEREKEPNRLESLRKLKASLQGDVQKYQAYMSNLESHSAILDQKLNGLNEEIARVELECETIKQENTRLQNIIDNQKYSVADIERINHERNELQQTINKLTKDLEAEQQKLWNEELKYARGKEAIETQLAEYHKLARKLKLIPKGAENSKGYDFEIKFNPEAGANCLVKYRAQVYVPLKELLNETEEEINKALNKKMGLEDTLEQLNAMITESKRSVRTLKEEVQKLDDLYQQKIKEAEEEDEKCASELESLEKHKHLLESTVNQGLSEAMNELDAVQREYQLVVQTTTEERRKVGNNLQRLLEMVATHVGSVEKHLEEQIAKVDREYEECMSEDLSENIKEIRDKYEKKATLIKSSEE
T2 sequence (Q9BZD4 whole entry, chain 2 of 2): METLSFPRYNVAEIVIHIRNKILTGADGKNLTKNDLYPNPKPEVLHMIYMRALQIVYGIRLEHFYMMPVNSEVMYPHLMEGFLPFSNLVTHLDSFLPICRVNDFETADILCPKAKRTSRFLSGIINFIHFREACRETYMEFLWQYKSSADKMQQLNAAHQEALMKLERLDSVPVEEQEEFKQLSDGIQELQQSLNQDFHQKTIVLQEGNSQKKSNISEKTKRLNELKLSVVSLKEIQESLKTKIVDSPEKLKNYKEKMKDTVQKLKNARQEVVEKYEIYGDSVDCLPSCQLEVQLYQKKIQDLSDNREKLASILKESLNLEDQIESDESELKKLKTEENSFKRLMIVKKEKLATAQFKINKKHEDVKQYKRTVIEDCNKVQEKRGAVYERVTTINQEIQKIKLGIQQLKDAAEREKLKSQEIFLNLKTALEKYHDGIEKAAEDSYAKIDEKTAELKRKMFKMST

As to B1, the binding result in assay [1] and in assay [2] was “binds” each time. Turning to B2, the binding result in assay [1] is “binds”. In general, Kd refers to the concentration at which binding is half-saturated. In the case of B3, in assay [3], the Kd is approximately 6 nM. Turning to B4, the binding result in assay [4] was “binds”. Regarding B5, the Kd in assay [3] was approximately 1 nM. B6: in assay [4], the binding result was “binds”. Take B7: the “fold reduction of binding affinity against the wild-type pair” value in assay [5] was approximately 27 fold. Take B8: the “fold reduction of binding affinity against the wild-type pair” value in assay [5] is approximately 5 fold.
